Source: US20250296995A1 (GlaxoSmithKline, published 2025)

Key:
[1] = target: T1, recombinant Plasmodium falciparum circumsporozoite protein (CSP) (Plasmodium falciparum, UniProt Q7K740 21-375); test: SPR, recombinant CSP
T1 construct: also called recombinant CSP

[2] = target: T1, recombinant Plasmodium falciparum …; test: binding affinity column of the in vivo table (SPR, CSP)

T1 sequence (Q7K740 21-375 limits assumed): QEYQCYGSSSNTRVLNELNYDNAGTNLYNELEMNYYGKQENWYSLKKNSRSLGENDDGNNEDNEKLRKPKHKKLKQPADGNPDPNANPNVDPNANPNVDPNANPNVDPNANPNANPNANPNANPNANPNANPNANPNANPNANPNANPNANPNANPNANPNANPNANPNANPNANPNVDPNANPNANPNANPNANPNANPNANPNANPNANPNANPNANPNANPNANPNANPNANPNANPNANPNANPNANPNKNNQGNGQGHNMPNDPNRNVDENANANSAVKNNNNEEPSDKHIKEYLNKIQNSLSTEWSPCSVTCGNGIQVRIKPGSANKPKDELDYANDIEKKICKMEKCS

| Binder | Kd [1] [nM] | koff [1] [s⁻¹] | kon [1] [M⁻¹ s⁻¹] | Kd [2] [nM] |
| --- | --- | --- | --- | --- |
| AB-000373 (antibody, V domains shown) VH: QVLLVESGGGVVQPGGSLRLSCTASGFTFKNYGMHWVRQAPGKGLEWVAVIWFDGSNEFYADSVEGRFTISRDNSKNTLYLQTNSLRAEDTAVYYCARSYTSSWLGFDFWGQGTLVTVSS VL: DAVMTQTPLSLSVTPGQPASISCKSGQSLLHSDGKTYLYWYLQKPGQSPQLLIYEVSSRFSGVPDRFSGSGSGTDFTLKISRVEAEDVGVYYCMRGIHPRTFGQGTKVEIK | 0.0592 | 0.00152 | 2.58e+07 | 0.0592 |
| AB001511 (antibody, V domains shown) VH: QVQLVESGGGVVQPGRSLRLSCAASGFTFSSYGMHWVRQAPGKGLEWVAIIWYDGSNKYYADSVKGRFTISRDNSKNTLYLQMNSLRAEDTAVYYCARDTDDYYDAHTMDVWGQGTTVTVSS VL: not shown | 2.03 | 0.000525 | 259000 |  |
| AB001472 (antibody, V domains shown) VH: QVQLVESGGGVVQPGRSLRLSCAASGFTFSSYGMHWVRQAPGKGLEWVAVIWYDGSNKYYADSVKGRFTISRDNSQNTLFLQMNSLRAEDTAVYYCARVGEYSSSPDWGAAFDIWGQGTMVTVSS VL: not shown | 2.11 | 0.000518 | 246000 | 2.11 |
| AB001533 (antibody, V domains shown) VH: QVQLVESGGGVVQPGRSLRLSCAASGFTFNSYGMHWVRQAPGKGLEWVALISFDGTNKFYADSVKGRFTISRDNSKNTLYLQMNSLRAEDTALYHCATDSLFYYDFHLFDYWGQGTLVTVSS VL: DIVLTQTPLSSPVTLGQPASISCRSSQSLVYSDGNTYLNWLQQRPGQPPRLLIYKISNRFSGVPDRFSGSGAGTDFTLKISRVEAEDVGVYYCMQATQLYTFGQGTKLEIK | 0.248 | 0.000669 | 2.69e+06 | 0.248 |
| AB001458 (antibody, V domains shown) VH: EVQLVESGGGLVQPGRSLRLSCTASGFTFGDYAMSWFRQAPGKGLEWVSFIRSKTYGGSTEYAASVKGRFTISRDDSKSIAYLQMHSLKTEDTAFYYCTRVSAAAGVGDYWGQGTLVTVSS VL: EIVMTQSPATLSVSPGERATLSCRASQSVGSNLAWYQQKPGQAPRLLIYGASTRATGLPARFSGSGSATEFTLTISSLQSEDFAVYYCQQYNTWWTFGQGTKVEIK | 0.921 | 0.00171 | 1.86e+06 | 0.921 |
| AB001558 (antibody, V domains shown) VH: QVQLVESGGGVVQPGRSLRLSCAASGFTFSSYGMHWVRQAPGKGLEWVAVIWYDGNNKYYVDSVKGRFTISRDNSKNTLYLQMNSLRAEDTAVYYCARDHDADYVEKWGAFDLWGQGTMVTVSS VL: EIVMTQSPATLSVSPGERATLSCRASQSVSSNLAWYQQKPGQAPRLLIYGASARATGIPARFSGSGSGTEFTLTISSLQSEDFAVYYCQQYNNGRTFGQGTKVEIT | 40.2 | 0.000797 | 19800 |  |
| AB-000325 (antibody, V domains shown) VH: QVQLVESGGGVVQPGRSLRLSCAASRFPFKNYGMHWVRQAPGKGLEWVALIWFDGSNKFYVDSVEGRFTISRDNSNNMLYLEMNSLRADDTAVYYCARAGRYDDSGYLDYWGQGTLVTVSS VL: EIVMTQSPATLSVSPGERATLSCRASQSVGSKLAWYQHKPGQAPRLLIYGASTRATGIPARFSGSGSGTEFTLTVSSLQSEDFAVYYCQQYNHWYTFGQGTKLEIK | 0.0529 | 0.00215 | 4.07e+07 |  |
| AB-000391 (antibody, V domains shown) VH: EVQLVQSGGGLVQPGGSLRLSCVASGFTLSSYEMNWVRQAPGKGLEWVSFISSSGSKKRYADSVKGRFTVSRDNAKNSLSLQMNSLRAEDTAVYYCARDHSTSDREYGLDVWGQGATVTVSS VL: DVVMTQSPLSLPVTLGQPASISCRSGQSLLYSDGNTYLYWFQQRPGQSPRRLIYKVSNRDPGVPERFSGSGSGTDFTLKISRVEAEDVGIYFCLQGTHWPYTFGRGTKLEIK | 0.616 | 0.000535 | 869000 |  |
| AB001578 (antibody, V domains shown) VH: QVQLVESGGGVVQPGRSLRLSCAASGFSFSNYGMHWVRQAPGKGLEWVAIIWYDGSNKYYADSVKGRFTISRDNSKNTLYLQMNSLRAEDTAVYYCARDGTIWDDSRGYILDYWGQGTLVTVSS VL: EIVLTQSPATLSLSPGERATLSCRASQGVSSYLAWYQQKPGQAPRLLIYDASNRATGIPARFSGSGSGTDFTLTISSLEPEDFAVYYCQQRSNWPPTFGPGTKVDIK | 2.64 | 0.000977 | 369000 |  |
| AB-000231 (antibody, V domains shown) VH: QVHLVESGGGVVQPGRSLRLSCAASGFTFRNYGIHWVRQAPGKGLEWVAVIWYDGSREFYADSVEGRFTVSRDNSKNTVFLQMNSLRVDDTAVYYCARAGYSDTSGYGDHWGQGTLVSVSS VL: QSVLTQPPSVSGAPGQRVTISCTGGSSNIGAGYDVHWYQQLPGTAPKLLISHNNNRPSGVPDRFSGSKSGTSASLVIAGLQAEDEADYYCQSYDRRLSSSWVFGGGTRLTVLS | 0.328 | 0.00142 | 4.34e+06 |  |
| AB-000327 (antibody, V domains shown) VH: QVQLVESGGGVVQPGRSLRLSCAASRFTFKNYGMHWVRQGPGKGLEWVAVIWYDGSQEYYVDSVRGRFTISRDNSKDTLYLQMNSLRAEDTAVYYCVRDGRYRTSHQTSTGFFDLWGQGTLVTVSS VL: QSMLTQPPSVSGAPGQRVTISCTGSSSNIGADYDVHWYQQLPGTAPKLLIYGNNNRPSGVPDRFSGSKSGTSASLAITGLQPEDEAEYYCQSYDSSLSGSFVFGTGTKVTVL | 0.467 | 0.00143 | 3.06e+06 | 0.467 |
| AB-000394 (antibody, V domains shown) VH: QAQPVESGGGVVQPGKSLRLSCAASGFTFRNFGMHWVRQAPGKGLEWVAVIWHDGSNQFYADSVEGRFTISRDNSKNTLYLQMDSLRVEDTAMYYCARDRGYSGSWGYFDHWGQGTLVTVSS VL: EIVLTQSPATLSLSPGERATLSCRASQSISDYLAWYQQKPGQAPRLLIYDASFRATGIPARFSGSGSGTDFTLTISSLEPEDFAVYYCQQRSIGFTFGPGTKVDIK | 0.105 | 0.00156 | 1.48e+07 | 0.105 |
| AB-001545 (antibody, V domains shown) VH: QVQLVESGGGVVQPGRSLRLSCAASGFTFSSYGMHWVRQAPGKGLEWVAVIWYDGSNKYYADSVKGRFTISRDNSKNTLYLQMNSLRAEDTAVYYCARDLDYSNHNWFDPWGQGTLVTVSS VL: EIVLTQSPATLSLSPGERATLSCRASQSVSSYLAWYQQKPGQAPRLLIYDASNRATGIPARFSGSGSGTDFTLTISSLEPEDFAVYYCQQRSNWFTFGQGTRLEIK | 4.96 | 0.000442 | 89000 |  |
| AB-000376 (antibody, V domains shown) VH: QVQLVESGGGVVQPGRSLRLSCTASGFTFSNYGMHWVRQAPGRALEWVAIIWHDGSNKYYADSVKGRFTISRDNSKNTLYLQMNNVRVEDTAVYHCAKVGGFGELYEAFDFWGQGTLVTVSS VL: DIQMTQSPSTLSASVGDRVTITCRASHSISNWLAWYQQKPGKAPRLLIYKASSLNSGVPSRFSGSASGTEFTLTISSLQPDDFATYFCQQYNAYWTFGQGTKVEIK | 0.201 | 0.000866 | 4.31e+06 |  |
| AB001428 (antibody, V domains shown) VH: QVQLVESGGGVVQPGRSLRLSCVVSGFTFSSYGMHWVRQAPGKGLEWVAIIWYDGSKKYYADSVKGRFTISRDNSKNTLYLQMNSLRAEDTAVYYCARPGDSSGSHGEAFDIWGQGTMVTVSS VL: DIQMTQSPSTLSASVGDRVTITCRPSQSISNWLAWYQQKPGKAPKLLIYKASSLESGVPSRFSGSGSGTEFTLTISGLQPDDFATYYCQQYNTYWTFGQGTKVEIK | 1.18 | 0.00101 | 855000 | 1.18 |
| AB001396 (antibody, V domains shown) VH: QVQLVESGGGVVQPGRSLRLSCAASGFTFSSYGMHWVRQAPGKGLEWVAIIWYDGSHKYYADSVKGRFTISRDNSKNTLYLQMNSLRAEDTAVYHCARVYQPTYYYDSSRGEAFDIWGQGTMVTVSS VL: DIQMTQSPSTLSASVGDRVTITCRASQSISSWLAWYQQKPGKAPKLLIYKASNLGSGVPSRFSGSGSGTEFTLTISSLQPDDFATYYCQQYNSYWTFGQGTKVEIK | 1.47 | 0.000393 | 268000 |  |
| AB001529 (antibody, V domains shown) VH: QVQLVESGGGVVQPGRSLRLSCVASGFSFRSYGMHWVRQAPGKGLEWVAIIWYDGSNKYYAHSVKGRFTISRDNSKNTLYLQMNSLRAEDTAIYYCAKDGGTETTWGNAFDIWGQGTMVTVSS VL: DIQMTQSPSTLSASVGDRVTITCRASQSISSWLAWYQQKPGKAPKLLIYKASSLESGVPSRFSGSGSGTEFTLTINNLQPDDFATYYCQQYNSYWTFGQGTKVEIK | 1.64 | 0.00108 | 660000 |  |
| AB001554 (antibody, V domains shown) VH: QVQLVESGGGVVQPGRSLRLSCAASGFTFSSYGMHWVRQAPGKGLEWVAVIWYDGSNKYHADSVKGRFTISRDNSKNTLYLQMNNLRSEDTAVYYCAKDETLWFGELSDGFDIWGQGTMVTVSS VL: not shown | 2.29 | 0.000716 | 313000 |  |
| AB-000338 LS (antibody, V domains shown) VH: QVQLVESGGGVVQPGRSLRLSCAASGFSFSTYGMHWIRQVPGKGLEWVAIIWHDGSKEFYADSVKGRFTISRDNSKKKLYLQMNSLRAEDTAIYYCVKDDFDSSGHSYFHYWGQGTLVTVSS VL: GVVMTQSPLSLPVTLGQPASISCRSSQSLVHSDGNTYVHWFQQRPGQSPRRLIYKVSNRDSGVPDRFSGSGSGTDFTLKISRVEAEDVGVYYCMQGTQWWTFGQGTKVEIK | 0.13 | 0.00147 | 1.13e+07 | 0.13 |
| AB001455 (antibody, V domains shown) VH: QVQLVESGGGVVQPGRSLRLSCAASGFTFSNYGMHWVRQAPGKGLEWVAIIWYDGSSKYYADSVRGRFTISRDNSKNTLFLQMNSLRAEDTAVYYCARDDYYSSAYNHLGYWGQGTLVTVSS VL: not shown | 1.37 | 0.000831 | 608000 | 1.37 |
